One block for each binder: values may come before it. Starred links: 1 amine or outer side, 2 acyl side, 3 side chain; linkers in the order of their positions; H or OH if unused. Positions of bridges follow the written chain, without caps; N, C: chain ends. Non-standard residues stand in square brackets, D forms with d. No end group written: not given here. Yde = (2S)-2-amino-3-[4-[2-(dimethylamino)ethoxy]phenyl]propanoic acid, CN(C)CCOc1ccc(C[C@H](N[*:1])C(=O)[*:2])cc1; Trp(7-Me) = Cc1cccc2c(C[C@H](N)C(=O)O)c[nH]c12; Trp(1-Me) = Cn1cc(C[C@H](N)C(=O)O)c2ccccc21; αMeLys(Me2) = CN(C)CCCC[C@](C)(N)C(=O)O; 2Nal = N[C@@H](Cc1ccc2ccccc2c1)C(=O)O; εLys = N[C@@H](CCCCN[*:1])C(=O)[*:2]; 3Pal = N[C@@H](Cc1cccnc1)C(=O)O; Dad = desamino-aspartamic acid; Lys(Me) = CNCCCC[C@H](N)C(=O)O; αMeL = CC(C)C[C@](C)(N)C(=O)O; Thp = NC1(C(=O)O)CCOCC1; Abu = CC[C@H](N)C(=O)O; Aib = CC(C)(N)C(=O)O; Ava = NCCCCC(=O)O; Sar = CNCC(=O)O
Molecular target: T1, IL-23 receptor on the surface of HEK-Blue IL-23 cells (UniProt Q5VWK5 24-629, limits assumed)
T1 sequence (looked up): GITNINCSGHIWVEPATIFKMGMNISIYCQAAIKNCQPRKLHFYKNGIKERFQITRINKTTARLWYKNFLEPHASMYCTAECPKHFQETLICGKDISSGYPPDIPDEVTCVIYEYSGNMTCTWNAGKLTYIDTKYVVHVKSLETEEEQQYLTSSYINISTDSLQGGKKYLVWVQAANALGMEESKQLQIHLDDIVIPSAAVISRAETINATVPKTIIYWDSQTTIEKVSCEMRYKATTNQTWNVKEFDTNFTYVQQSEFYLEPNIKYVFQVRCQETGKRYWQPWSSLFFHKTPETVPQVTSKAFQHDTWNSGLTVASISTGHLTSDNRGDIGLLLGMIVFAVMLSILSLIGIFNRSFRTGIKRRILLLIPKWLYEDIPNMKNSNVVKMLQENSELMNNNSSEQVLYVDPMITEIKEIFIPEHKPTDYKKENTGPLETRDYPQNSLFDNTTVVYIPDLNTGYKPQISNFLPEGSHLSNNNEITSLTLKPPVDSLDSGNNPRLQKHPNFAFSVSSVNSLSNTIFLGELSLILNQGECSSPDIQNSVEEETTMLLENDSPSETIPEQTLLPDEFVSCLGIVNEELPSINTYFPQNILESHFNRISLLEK
Experiment: cell-based or functional assay

pSTAT3 (nM): 0.1 nM
B1: Compound of SEQ ID NO: 105 (peptide)
peptide: [Dad]CK[Trp(7-Me)]K(Ac)C[Yde][2Nal][Thp]KN[3Pal][Sar]-NH2
modifications: lactam (positions not given here); disulfide 2-6; not fully specified (residue 3, bridges); printed as Dad(§1)-C(§3)(@2)-K[aAc](@3)-Wim-K[Ac]-C(@2)-Yde-Nal-Thp-K(§1)-N-Pal-Sar-NH2; also: K[aAc]: Cys2 bonded to epsilon-NH2 of acetylated Lys3, acetyl presumably on alpha-amine

pSTAT3 (nM): 0.11 nM
B2: Compound of SEQ ID NO: 126 (peptide)
peptide: [Ava]CK[Trp(1-Me)]K(Ac)C[Yde][2Nal][Thp]EN[3Pal][Sar]-NH2
modifications: lactam N-10; disulfide 2-6; not fully specified (residue 3); printed as Apt(§1)-C(§3)(@2)-K[aAc](@3)-Wme-K[Ac]-C(@2)-Yde-Nal-ThpE(§1)-N-Pal-Sar-NH2; also: K[aAc]: Cys2 bonded to epsilon-NH2 of acetylated Lys3, acetyl presumably on alpha-amine

pSTAT3 (nM): 0.08 nM
B3: Compound of SEQ ID NO: 156 (peptide)
peptide: [Dad]CNT[Trp(7-Me)]K(Ac)C[Yde][2Nal][αMeLys(Me2)][Lys(Me)]N[3Pal][Sar]-NH2
modifications: lactam (positions not given here); disulfide 2-7; not fully specified (bridges); printed as Dad(§1)-C(@2)-N-T-Wim-K[Ac]-C(@2)-Yde-Nal-MKdm-Kme(§1)-N-Pal-Sar-NH2

pSTAT3 (nM): 0.37 nM
B4: Compound of SEQ ID NO: 122 (peptide)
peptide: [Dad][Abu]K[Trp(7-Me)]K(Ac)C[Yde][2Nal][Thp]KN[3Pal][Sar]-NH2
modifications: lactam (positions not given here); thioether 2-6; not fully specified (residue 3, bridges); printed as Dad(§1)-Abu(§3)(@2)-K[aAc](@3)-Wim-K[Ac]-C(@2)-Yde-Nal-Thp-K(§1)-N-Pal-Sar-NH2; also: K[aAc]: Abu2 bonded to epsilon-NH2 of acetylated Lys3, acetyl presumably on alpha-amine

pSTAT3 (nM): 0.13 nM
B5: Compound of SEQ ID NO: 150 (peptide)
peptide: [Dad]CNT[Trp(7-Me)]LC[Yde][2Nal][αMeLys(Me2)]KN[3Pal]-NH2
modifications: lactam (positions not given here); disulfide 2-7; not fully specified (bridges); printed as Dad(§1)-C(@2)-N-T-Wim-L-C(@2)-Yde-Nal-MKdm-K(§1)-N-Pal-NH2

pSTAT3 (nM): 0.06 nM
B6: Compound of SEQ ID NO: 157 (peptide)
peptide: [Dad]CNT[Trp(7-Me)]K(Ac)C[Yde][2Nal][Aib]KN[3Pal][Sar]-NH2
modifications: lactam (positions not given here); disulfide 2-7; not fully specified (bridges); printed as Dad(§1)-C(@2)-N-T-Wim-K[Ac]-C(@2)-Yde-Nal-Aib-K(§1)-N-Pal-Sar-NH2

pSTAT3 (nM): 0.13 nM
B7: Compound of SEQ ID NO: 106 (peptide)
peptide: [Dad]CK[Trp(7-Me)]K(Ac)C[Yde][2Nal][αMeL]KN[3Pal][Sar]-NH2
modifications: lactam (positions not given here); disulfide 2-6; not fully specified (residue 3, bridges); printed as Dad(§1)-C(§3)(@2)-K[aAc](@3)-Wim-K[Ac]-C(@2)-Yde-Nal-Mle-K(§1)-N-Pal-Sar-NH2; also: K[aAc]: Cys2 bonded to epsilon-NH2 of acetylated Lys3, acetyl presumably on alpha-amine

pSTAT3 (nM): 5.54 nM
B8: Compound of SEQ ID NO: 8 (peptide)
peptide: [Ava]CNTWQC[Yde][2Nal][Aib]ENN-NH2
modifications: lactam (positions not given here); disulfide 2-7; not fully specified (bridges); printed as Apt(§1)-C(@2)-N-T-W-Q-C(@2)-Yde-Nal-Aib-E(§1)-N—N—NH2

pSTAT3 (nM): 0.04 nM
B9: Compound of SEQ ID NO: 149 (peptide)
peptide: [Ava]CK[Trp(7-Me)]K(Ac)C[Yde][2Nal][αMeLys(Me2)]EN[3Pal][Sar]-NH2
modifications: lactam N-10; disulfide 2-6; not fully specified (residue 3); printed as Apt(§1)-C(§3)(@2)-K[aAc](@3)-Wim-K[Ac]-C(@2)-Yde-Nal-MKdm-E(§1)-N-Pal-Sar-NH2; also: K3 acetylated (K[aAc]), acetyl site not given here, ε-NH2 takes the Cys2 bond

pSTAT3 (nM): 0.1 nM
B10: Compound of SEQ ID NO: 104 (peptide)
peptide: [Dad]CK[Trp(7-Me)]K(Ac)C[Yde][2Nal][Aib]KN[3Pal][Sar]-NH2
modifications: lactam (positions not given here); disulfide 2-6; not fully specified (residue 3, bridges); printed as Dad(§1)-C(§3)(@2)-K[aAc](@3)-Wim-K[Ac]-C(@2)-Yde-Nal-Aib-K(§1)-N-Pal-Sar-NH2; also: K[aAc]: Cys2 bonded to epsilon-NH2 of acetylated Lys3, acetyl presumably on alpha-amine

pSTAT3 (nM): 0.1 nM
B11: Compound of SEQ ID NO: 155 (peptide)
peptide: [Dad]CNT[Trp(7-Me)]LC[Yde][2Nal][αMeLys(Me2)]KA[3Pal][Sar]-NH2
modifications: lactam (positions not given here); disulfide 2-7; not fully specified (bridges); printed as Dad(§1)-C(@2)-N-T-Wim-L-C(@2)-Yde-Nal-MKdm-K(§1)-A-Pal-Sar-NH2

pSTAT3 (nM): 0.08 nM
B12: Compound of SEQ ID NO: 154 (peptide)
peptide: [Dad]CNT[Trp(7-Me)]LC[Yde][2Nal][αMeLys(Me2)]KN[3Pal][Sar]-NH2
modifications: lactam (positions not given here); disulfide 2-7; not fully specified (bridges); printed as Dad(§1)-C(@2)-N-T-Wim-L-C(@2)-Yde-Nal-MKdm-K(§1)-N-Pal-Sar-NH2

pSTAT3 (nM): 65 nM
Binder: XCNTWQCXXXDNG (not fully specified; Ahx(§1)-C(@2)-N-T-W-Q-C(@2)-Yae-Nal-Aib-D(§1)-N-G-NH2) [Compound of SEQ ID NO: 9]

pSTAT3 (nM): 0.39 nM
B13: Compound of SEQ ID NO: 158 (peptide)
peptide: [Dad]C[εLys][Trp(7-Me)]LC[Yde][2Nal][αMeL]KN[3Pal][Sar]-NH2
modifications: disulfide 2-6; lactam 1-10; also: K3 acetylated (K[aAc]), acetyl site not given here, ε-NH2 takes the Cys2 bond

pSTAT3 (nM): 0.06 nM
B14: Compound of SEQ ID NO: 151 (peptide)
peptide: [Dad]CNT[Trp(7-Me)]K(Ac)C[Yde][2Nal][αMeLys(Me2)]KN[3Pal][Sar]-NH2
modifications: lactam (positions not given here); disulfide 2-7; not fully specified (bridges); printed as Dad(§1)-C(@2)-N-T-Wim-K[Ac]-C(@2)-Yde-Nal-MKdm-K(§1)-N-Pal-Sar-NH2
